Laboratory results reported in publication PMC13544220, “Glycemic and bodyweight effects of GIPR coding variation reflect differences in surface expression and intrinsic functional impairment” (Science Advances, 2026).

Experiments:
Assay type in all cases: cell-based, human
[1] = test system: wild-type and variant SNAP-GIPR; experiment: Single-concentration GIP cAMP response by HTRF in INS-1 cells; conditions: Fig S3E, mean
Description: (§1) All variants were tested in parallel on each occasion to control for transfection efficiency differences between experiments.

[2] = test system: wild-type and variant SNAP-GIPR; experiment: Surface SNAP-GIPR expression (SNAP-tag labelling) in AD293 cells; conditions: for AD293 Surface: Fig S3E, mean; for Surface SNAP-GIPR expression: sheet Fig 1C;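 as to all read-outs here: scaled to the experimental average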
Outline: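 Surface GIPR is quantified from wide-field images after labelling intact transfected cells with a membrane-impermeant SNAP probe at 500 nM for 10 min at room temperature. Specific signal, corrected for nontransfected cells, is normalized to the experiment-wide average or to wild-type.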

[3] = test system: wild-type and variant SNAP-GIPR; experiment: Constitutive and agonist-mediated internalization, reversible SNAP-tag labelling, AD293 cells; parameters: key to Internalisation, Vehicle / Internalisation, +GIP / Internalisation, GIP-only: % internalization: residual fluorescence after Mesna vs pre-Mesna; Surface expression: unit not given here; conditions: Mean
Description: (§2) Twenty-four hours before the experiment, AD293 or INS-1 cells were reverse transfected with GIPR variant or wild-type plasmids using Lipofectamine 2000 in 96-well, clear-bottom, black microplates precoated with poly-D-lysine. All variants were tested in parallel on each occasion to control for transfection efficiency differences between experiments. […] Media were then removed, cells washed with PBS and then placed in TNE buffer (pH 8.6) for imaging. […] After 10 min, the well was reimaged again to detect remaining fluorescence from internalized GIPR. Images were analyzed as in the “Assessment of surface GIPR expression by SNAP-tag labeling in cell lines” section, with the residual specific fluorescence after Mesna treatment expressed relative to the pre-Mesna value to establish percentage internalization.

[4] = test system: wild-type and variant SNAP-GIPR; experiment: cADDis cAMP imaging in AD293 cells, ensemble, expression-matched and per decile; conditions: Fig S3F, cADDis, mean
Description: AD293 cells were reverse transfected with the GIPR variant or wild-type plasmids using Lipofectamine 2000 and cotransduced with the cADDis Green Up BacMam (10 μl per well, Montana Molecular, USA), in 96-well, poly-D-lysine–coated microplates. All variants were tested in parallel on each occasion to control for transfection efficiency differences between experiments. After 24 hours, cells were labeled using 500 nM SNAP-Surface Alexa Fluor 647 for 10 min at room temperature. Cells were washed three times and then imaged in KRBH buffer containing 6 mM glucose and 0.1% BSA. Imaging was performed at 37°C by wide-field microscopy using the same microscope as in the “Assessment of surface GIPR expression by SNAP-tag labeling in cell lines” section, with 9 FOVs for both cADDis and SNAP-Surface fluorescence acquired from each well using a 10X, 0.45 NA air objective. […] Flat-field correction was performed using BaSiC ([72]), drift correction was performed using SIFT, and a maximum intensity projection of the cADDis channel was used to segment individual cells. cAMP responses were determined by quantifying the cADDis fluorescence intensity for each cell at each time point. Nonviable cells or noncell objects were excluded according to criteria for allowable cell IBMX/FSK responses. […] The cADDis mask was then used to quantify the SNAP-Surface signal from each cell. Wild-type SNAP-Surface readings were split into deciles, and these deciles were subsequently used to categorize variant-transfected cells to match against the wild type. After trimming the top and bottom deciles, the mean was taken of each decile mean for surface expression level or cAMP response, which achieved matched expression levels by effectively applying an inverse weighting to counteract differences in cell number in each decile for different variants. Ensemble expression levels or cAMP responses were calculated without regard to deciles. Variant cADDis responses were also analyzed within their own surface expression deciles.

[5] = test system: wild-type and variant SNAP-GIPR; experiment: Surface SNAP-GIPR expression (SNAP-tag labelling) in INS-1 cells; conditions: Fig 4G; Mean
Description: Twenty-four hours before the experiment, AD293 or INS-1 cells were reverse transfected with GIPR variant or wild-type plasmids using Lipofectamine 2000 in 96-well, clear-bottom, black microplates precoated with poly-D-lysine. All variants were tested in parallel on each occasion to control for transfection efficiency differences between experiments. Cells were then labeled using the cell-impermeant probe SNAP-Surface Alexa Fluor 647 (500 nM, New England Biolabs, USA) for 10 min at room temperature to label only surface GIPR. […] Several fields of view (FOVs) were acquired within each well using a 20X, 0.75–numerical aperture (NA) air objective. Surface GIPR fluorescence was quantified after flat-field correction using BaSiC ([72]) and segmenting using Phantast ([73]), which generates a mask based on the phase contrast images to demarcate cell versus noncell. Wide-field imaging of the surface-specific labeling achieved by SNAP-Surface probes means that surface expression can be established from whole-cell fluorescence, after subtracting nonspecific fluorescence from a separate well containing nontransfected cells processed in parallel from the same experiment. Data were normalized by dividing by the average specific signal across each experiment, or by the wild-type value, as indicated in the figure legends.

[6] = test system: wild-type and variant SNAP-GIPR; experiment: Constitutive and agonist-mediated internalization, reversible SNAP-tag labelling, INS-1 cells; parameters: key to Internalisation, GIP-only / Internalisation, Vehicle / Internalisation, +GIP: % internalization: residual fluorescence after Mesna vs pre-Mesna; conditions: Mean
Description: as §2

[7] = test system: wild-type and variant SNAP-GIPR; experiment: Single-concentration GIP cAMP response by HTRF in AD293 cells; conditions: Fig S3F, HTRF, mean;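 also: ratio to experiment-wide average response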
Description: as §1

B1: A268V (protein, UniProt P48546 22-466, looked up, variant A268V)
Gastric inhibitory …: RAETGSKGQTAGELYQRWERYRRECQETLAAAEPPSGLACNGSFDMYVCWDYAAPNATARASCPWYLPWHHHVAAGFVLRQCGSDGQWGLWRDHTQCENPEKNEAFLDQRLILERLQVMYTVGYSLSLATLLLALLILSLFRRLHCTRNYIHINLFTSFMLRAAAILSRDRLLPRPGPYLGDQALALWNQALAACRTAQIVTQYCVGANYTWLLVEGVYLHSLLVLVGGSEEGHFRYYLLLGWGAPVLFVIPWVIVRYLYENTQCWERNEVKAIWWIIRTPILMTILINFLIFIRILGILLSKLRTRQMRCRDYRLRLARSTLTLVPLLGVHEVVFAPVTEEQARGALRFAKLGFEIFLSSFQGFLVSVLYCFINKEVQSEIRRGWHHCRLRRSLGEEQRQLPERAFRALPSGSGPGEVPTSRGLSSGTLPGPGNEASRELESYC
- INS-1 cAMP (100 nM) [1]: 1.343
- AD293 Surface ([2]; column repeated, paired with cAMP 100 nM): 1.382
- AD293 Surface ([2]; paired with cAMP 100 pM): 1.382
- Surface SNAP-GIPR expression ([2]; replicate 1): 1.352
- Surface SNAP-GIPR expression ([2]; replicate 2): 1.469
- Surface SNAP-GIPR expression ([2]; replicate 3): 1.684
- Surface SNAP-GIPR expression ([2]; replicate 4): 1.15
- Surface SNAP-GIPR expression ([2]; replicate 5): 1.545
- Surface SNAP-GIPR expression ([2]; replicate 6): 1.48
- Surface SNAP-GIPR expression ([2]; replicate 7): 1.735
- Surface SNAP-GIPR expression ([2]; replicate 8): 0.9896
- Surface SNAP-GIPR expression ([2]; replicate 9): 1.756
- Surface SNAP-GIPR expression ([2]; replicate 10): 1.344
- Surface SNAP-GIPR expression ([2]; replicate 11): 1.392
- Surface SNAP-GIPR expression ([2]; replicate 12): 1.329
- Surface SNAP-GIPR expression ([2]; replicate 13): 1.75
- Surface SNAP-GIPR expression ([2]; replicate 14): 1.057
- Surface SNAP-GIPR expression ([2]; replicate 15): 1.196
- Surface SNAP-GIPR expression ([2]; replicate 16): 1.17
- Surface SNAP-GIPR expression ([2]; replicate 17): 1.366
- Surface SNAP-GIPR expression ([2]; replicate 18): 1.286
- Surface SNAP-GIPR expression ([2]; replicate 19): 1.239
- Surface SNAP-GIPR expression ([2]; replicate 20): 1.203
- Surface SNAP-GIPR expression ([2]; replicate 21): 1.125
- Surface SNAP-GIPR expression ([2]; replicate 22): 1.189
- Surface SNAP-GIPR expression ([2]; replicate 23): 1.374
- Surface SNAP-GIPR expression ([2]; replicate 24): 1.314
- Surface SNAP-GIPR expression ([2]; replicate 25): 1.303
- Surface SNAP-GIPR expression ([2]; replicate 26): 1.296
- Surface SNAP-GIPR expression ([2]; replicate 27): 1.545
- Surface SNAP-GIPR expression ([2]; replicate 28): 1.175
- Surface SNAP-GIPR expression ([2]; replicate 29): 1.642
- Surface SNAP-GIPR expression ([2]; replicate 30): 1.674
- Surface SNAP-GIPR expression ([2]; replicate 31): 1.459
- Surface SNAP-GIPR expression ([2]; replicate 32): 1.555
- Surface SNAP-GIPR expression ([2]; replicate 33): 1.663
- Surface SNAP-GIPR expression ([2]; replicate 34): 1.328
- Surface SNAP-GIPR expression ([2]; replicate 35): 1.277
- Surface SNAP-GIPR expression ([2]; replicate 36): 1.382
- Surface SNAP-GIPR expression ([2]; replicate 37): 1.6
- Surface SNAP-GIPR expression ([2]; replicate 38): 1.461
- Surface SNAP-GIPR expression ([2]; replicate 39): 1.123
- Surface SNAP-GIPR expression ([2]; replicate 40): 1.335
- Surface SNAP-GIPR expression ([2]; replicate 41): 1.367
- +GIP internalisation (100 nM) ([3]; Fig 4E, GIP 100 nM): 0.7963
- GIP-specific internalisation (100 nM) ([3]; Fig 4E, GIP 100 nM): 0.2682
- Constitutive internalisation (100 nM) ([3]; Fig 4E): 0.5281
- Surface expression ([3]; Fig 4E): 1.472
- Internalisation, +GIP ([3]; Fig S4C, AD293): 57.341
- Internalisation, GIP-only ([3]; Fig S4C, AD293): 19.4051
- Internalisation, Vehicle ([3]; Fig S4C, AD293): 37.9359
- AD293 100 pM cADDis ([4]; AD293, 100 pM): 34.2441
- AD293 100 nM cADDis ([4]; AD293, 100 nM): 37.42
- Surface expression [5]: 1.2654
- +GIP internalisation (100 nM) ([6]; Fig 4G, GIP 100 nM): 0.6195
- GIP-specific internalisation (100 nM) ([6]; Fig 4G, GIP 100 nM): 0.1687
- Constitutive internalisation (100 nM) ([6]; Fig 4G): 0.4508
- Internalisation, +GIP ([6]; Fig S4C, INS-1): 51.1233
- Internalisation, GIP-only ([6]; Fig S4C, INS-1): 13.9983
- Internalisation, Vehicle ([6]; Fig S4C, INS-1): 37.125
- AD293 100 pM HTRF ([7]; AD293, 100 pM): 2.332
- AD293 100 nM HTRF ([7]; AD293, 100 nM): 1.283
